The source of these data is article PMC6265464.

For series [1], the target named is full-length 3× Flag-tagged R192F hFEN1 (human) (UniProt P39748). The series can be described thus: co-IP.
Series [2] addresses hFEN1 D181A/R192F (1-333) (Homo sapiens, UniProt P39748 1-333, D181A;R192F). Description: X-ray crystallography.

Sequence of full-length 3× Flag-tagged R192F hFEN1 (human) (P39748 whole entry R192F): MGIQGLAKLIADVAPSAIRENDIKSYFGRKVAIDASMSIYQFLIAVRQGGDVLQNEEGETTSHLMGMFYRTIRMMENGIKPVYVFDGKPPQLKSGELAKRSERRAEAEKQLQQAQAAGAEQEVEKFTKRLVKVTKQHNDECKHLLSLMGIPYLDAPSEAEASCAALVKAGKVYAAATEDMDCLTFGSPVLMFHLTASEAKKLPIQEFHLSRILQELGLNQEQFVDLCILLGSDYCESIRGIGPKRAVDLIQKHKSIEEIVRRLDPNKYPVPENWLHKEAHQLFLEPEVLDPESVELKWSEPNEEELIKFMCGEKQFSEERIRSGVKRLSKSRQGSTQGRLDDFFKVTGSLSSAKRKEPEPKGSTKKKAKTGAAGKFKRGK
Sequence of hFEN1 D181A/R192F (1-333) (P39748 1-333 D181A/R192F): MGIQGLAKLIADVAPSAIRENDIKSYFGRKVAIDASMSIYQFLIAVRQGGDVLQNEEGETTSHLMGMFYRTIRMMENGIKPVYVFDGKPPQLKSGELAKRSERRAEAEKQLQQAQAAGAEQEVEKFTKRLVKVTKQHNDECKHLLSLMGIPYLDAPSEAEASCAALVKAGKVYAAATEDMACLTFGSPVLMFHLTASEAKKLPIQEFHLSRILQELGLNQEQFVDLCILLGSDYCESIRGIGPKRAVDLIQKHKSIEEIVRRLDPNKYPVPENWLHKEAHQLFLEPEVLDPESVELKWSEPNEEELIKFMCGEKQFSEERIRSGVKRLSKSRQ

As to “CDK2 (from UniProt P24941 1-298) (enzyme)”, in series [1], the percent lower interaction than with wild-type hFEN1 stood at 40%.
The same measure, in the same setting: then “Cyclin E (from UniProt P24864 1-410) (natural protein)”, with 70%.

B1: double-flap DNA (D181A/R192F crystal) (dsDNA)
DNA 1: CCTCTGCCTCAAGACGGG
DNA 2: GCCCGTCC
DNA 3: ACTTTGAGGCAGAG
In the case of B1, in series [2], the binding result is reported as “binds”.
